Here are results for two molecules from PMC11931385, “Structural and functional analysis of cancer-associated missense variants in the retinoblastoma protein pocket domain” (The Journal of Biological Chemistry, 2025).

Residue numbers refer to the chain shown, from its start. Names and notes keep the numbering of the source. No end group written: not given here. TMR = tetramethyl rhodamine dye

Common to all, as to experiment: fluorescence polarisation; 25 °C; unlabeled Rb^P titrated against 1.5 nM TMR-E2F1^TD or 7.5 nM TMR-E7^LxCxE; 25 mM Tris pH 8.0, 200 mM NaCl, 1 mM DTT, 0.1% Tween-20; 2 min incubation; quadratic fit; apparent Kd for the variants, Kd for WT
Holding throughout (conditions): both partners purified
On the technique in general: Fluorescence polarisation rises when a labelled molecule tumbles more slowly, as on binding a larger partner.

One test concerns the target T1, Rb^P R451H (human, UniProt P06400 380-788, R451H).
T1 construct: also called variant 6
T1 sequence (looked up): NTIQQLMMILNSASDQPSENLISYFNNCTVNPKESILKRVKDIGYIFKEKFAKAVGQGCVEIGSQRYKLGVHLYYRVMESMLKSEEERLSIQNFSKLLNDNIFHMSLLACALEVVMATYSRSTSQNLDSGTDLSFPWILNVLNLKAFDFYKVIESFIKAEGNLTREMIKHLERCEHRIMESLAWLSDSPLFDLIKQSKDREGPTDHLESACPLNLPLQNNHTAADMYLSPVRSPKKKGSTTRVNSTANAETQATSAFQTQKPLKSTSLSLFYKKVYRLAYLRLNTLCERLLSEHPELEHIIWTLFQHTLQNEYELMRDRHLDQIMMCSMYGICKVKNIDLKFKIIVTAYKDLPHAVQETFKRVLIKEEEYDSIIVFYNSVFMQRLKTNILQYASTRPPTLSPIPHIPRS

The next test concerns the target T2, Rb^P V654L (human, UniProt P06400 380-788, V654L).
T2 construct: also called variant 47
T2 sequence (looked up): T1 sequence (looked up) with H72R, V275L

A further test has as its target T3, Rb^P Y606C (human, UniProt P06400 380-788, Y606C).
T3 construct: also called variant 37
T3 sequence (looked up): T1 sequence (looked up) with H72R, Y227C

Another test has as its target T4, Rb^P K548N (human, UniProt P06400 380-788, K548N).
T4 construct: also called variant 26
T4 sequence (looked up): T1 sequence (looked up) with H72R, K169N

The next test has as its target T5, Rb^P A490V (human, UniProt P06400 380-788, A490V).
T5 construct: also called variant 17
T5 sequence (looked up): T1 sequence (looked up) with H72R, A111V

B1: TMR-E2F1^TD, peptide of the E2F1 transactivation domain (peptide)
peptide: {TMR}-GEGIRDLFDCDFGDLTPLD
notes: also called E2F^TD; source: synthetic peptide, bought: GenScript
With B1, the Kd in the test with Rb^P R451H was 29 nM; with Rb^P V654L, 18 nM; with Rb^P Y606C it was 15 nM; with Rb^P K548N, 133 nM; in the test with Rb^P A490V, 48 nM.

B2: TMR-E7^LxCxE, LxCxE peptide of the E7 oncoprotein from HPV (peptide)
peptide: DLYCYEQLN
modifications: also: TMR label, position not given here
notes: source: synthetic peptide, bought: GenScript
In the case of B2, the Kd in the test with Rb^P R451H came to 9 nM; with Rb^P V654L, 11 nM; with Rb^P Y606C, 7 nM; with Rb^P K548N, 6 nM; with Rb^P A490V, 11 nM.
